From the supplement of paper PMC12042874
± gives the uncertainty stated by the source.

test: amyloid nucleation score (Sup35N fusion, yeast selection) (log enrichment); library NNK3; higher = more nucleation; inactive = no reads after selection
Method in brief: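 For the nucleation score, DiMSum gave the log enrichment of output over input reads, centred on the mode score of non-aggregating sequences. Psi-negative yeast expressing Sup35N fused to peptides of 20 random codons were induced with 100 μM copper sulfate for 24 hours and grown 7 days at 30°C on medium lacking adenine and uracil. Input and output plasmid inserts were Illumina-sequenced, and sequences with under 100 input reads were excluded.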

Row | Substance | amyloid nucleation score
1 | VCSDGLNWGHGVRMLWY | inactive
2 | VCSHGFCACCRNNKDETWCD | -0.331 ± 0.66
3 | VCSVTFMLVLLCMRHCLITR | inactive
4 | VCTTMCDTRWVTISYF | inactive
5 | VCVTSSSMCNFDGLVVTRVV | inactive
6 | VDAIASGVYWPPVVVYSWLF | inactive
7 | VDEDQLRHMWVHSD | inactive
8 | VDISFVSAWKDLLLGRLVCD | inactive
9 | VDKDTE | inactive
10 | VDKWSCVDNFFSY | inactive
11 | VDMVGYRNLRCHSN | inactive
12 | VDNSYQFSLKTDSNYNIERQ | inactive
13 | VDQPQ | inactive
14 | VDWNRTFEIKSVEGDVKGAL | inactive
15 | VEAMQVWDSSFMSCTNLFTS | inactive
16 | VECCNGLCDDVLGAVGNLGL | inactive
17 | VECHPCSHFDLHNGRIRDNR | inactive
18 | VEEGFGLMSKIAHSIGLREC | -0.278 ± 1.4
19 | VEFTN | inactive
20 | VEGCMIFMVVSLLKHYASYT | inactive
21 | VEIKYSVFLRWHVMRDDRLD | inactive
22 | VEKAIAFGNF | inactive
23 | VEMFNITAYTIKSLRVIGLV | inactive
24 | VEMGVLSGFK | -0.288 ± 0.75

Row | Substance | amyloid nucleation score
25 | VENKMFDRGGFYVWMCGLSD | inactive
26 | VENLHNHYQYVFKNGMCDG | 0.263 ± 0.22
27 | VEQMLVFDTPLSYLVKQVKF | inactive
28 | VESFICDMIVSPHSLS | inactive
29 | VEWMFTEMSVCLE | inactive
30 | VEYQNI | inactive
31 | VFAARAKRY | inactive
32 | VFASQ | 1.3 ± 0.13
33 | VFCAGLFDTMCCSDGASVEV | 1.16 ± 0.095
34 | VFDPGLSNCWRVTGWNED | inactive
35 | VFDSCRTFSMYTDLLGWEWR | inactive
36 | VFIGSVGFSDLWKLSVAYNY | inactive
37 | VFKCCVLFGGSRWFTLFLWF | inactive
38 | VFLCMGTYDTCFL | 0.638 ± 0.16
39 | VFLGCYSSYIVIWDARAPG | 1.96 ± 0.071
40 | VFLNQCLSGVMGLEGVSLDR | inactive
41 | VFLPLPPCTC | inactive
42 | VFLQRCVDYMCDRNCFSVFA | inactive
43 | VFMNKGQRV | inactive
44 | VFNKCVQFYFILGRNNEIWI | 2.56 ± 0.077
45 | VFPKSYTPDQTFPCNSSLAK | inactive
46 | VFQRR | inactive
47 | VFRLLVDKYCGFSPVGLPDV | inactive
48 | VFTFAWMLNRVISNYHPTIP | inactive

Row | Substance | amyloid nucleation score
49 | VFVAMNVFMVWICRLQGSLT | 0.508 ± 0.33
50 | VFVFDVLFGLLNMANFREVD | -0.713 ± 0.88
51 | VFVPVYPEFFVRSG | inactive
52 | VFVVGSVSRCCKKLVT | inactive
53 | VGAGWYN | inactive
54 | VGCHLWEHWRSMQVR | inactive
55 | VGERLANQIGTYCDDQWWTW | inactive
56 | VGFILWFGGHCGS | 0.659 ± 0.23
57 | VGGPNCIQAFS | inactive
58 | VGGQWGAYAAKA | inactive
59 | VGIRWYGFDTCRRKFGTWNI | inactive
60 | VGLISGVCDDGSGSMSSRLW | inactive
61 | VGLIWVVSFIDKNSYGWSGT | inactive
62 | VGLWVAYYGRETNRVDNYVT | inactive
63 | VGNGYTMSG | inactive
64 | VGNQKIIMRGALELDRELTC | inactive
65 | VGRRDN | inactive
66 | VGRSNH | inactive
67 | VGSGCNISTKTACFYMKLIA | inactive
68 | VGSQEANLAVGI | inactive
69 | VGYMALQETILVIVDDGVTE | inactive
70 | VHNYHERALKKHEGTTVRNF | 0.154 ± 0.4
71 | VHSFLKYGGNSAIGLLPEDS | inactive
72 | VHTCGRKVWFEA | inactive

Row | Substance | amyloid nucleation score
73 | VICGCWIFFFYFLK | -0.354 ± 0.73
74 | VIDRNWRRLHSWVGLVGRAR | inactive
75 | VIFISILPLRKCSDKWEDNN | inactive
76 | VIFYCFSRILTYKSIVVG | inactive
77 | VIGAFRLYNFNVALISSNIS | inactive
78 | VIGRTASDGVRCCRVGMMRR | inactive
79 | VIGRVRIGLVFRSTIGFSEG | inactive
80 | VIIPNFWLFEGLRAGKRRG | inactive
81 | VIITNEMVDRVDGDTTSYMH | -0.003 ± 1
82 | VIITSSTVLMFRFLEYRESQ | inactive
83 | VIKTHMWLGL | 0.633 ± 0.24
84 | VINVT | inactive
85 | VIPARADATGPKEHGWLQLQ | inactive
86 | VIQIYIMRCLYDYYI | 2.8 ± 0.063
87 | VIRGRMMCHGIGAYVVWKSH | inactive
88 | VIRQVCYYRLGEWLLGAR | inactive
89 | VIRVKSSCLVLLEHKLLACG | inactive
90 | VISGNNVCSIRSDFRKIFFY | 0.762 ± 0.17
91 | VISMRVTGVVHRFWNEVYRD | 1.22 ± 0.1
92 | VITLYVVGVYWGGNDIGDFM | 0.976 ± 0.19
93 | VIVRRSQFTELICLFYNFTM | inactive
94 | VIWVPVKIR | inactive
95 | VIYLKTRWNSWCPAGGVLLC | inactive
96 | VKDSLMGCKIPCN | inactive

Row | Substance | amyloid nucleation score
97 | VKDYNYKFWALPSVPREWVF | inactive
98 | VKLNYISLDENVRSVKQVMI | inactive
99 | VKMSWHHHCLFLICLCTSYE | 0.606 ± 0.13
100 | VKRADNSSSALRWYLNMYNL | inactive
101 | VKSFCCFGWVLSP | inactive
102 | VKSLIELCRYNRPLALDLNI | -0.519 ± 0.8
103 | VKTKPFHLRYR | inactive
104 | VKTWCYRCCSGALSLS | inactive
105 | VKYYDFCEPGRGYKDIRRL | inactive
106 | VLAGACDYPYGNVLV | inactive
107 | VLCNYGCGIDFAV | 0.181 ± 0.53
108 | VLCSVFIFFLRGFDS | 2.3 ± 0.066
109 | VLDAIVATDRL | inactive
110 | VLDKVKWTLLCNGRRAVAPW | -0.089 ± 1.4
111 | VLILCIKNTCLNQCASSCHR | 2.02 ± 0.068
112 | VLIMRCLKWFASMLCFSIPK | inactive
113 | VLIYRRGFNYLRVLCCTTGF | inactive
114 | VLKKGGVFVWFAWECNTCSD | inactive
115 | VLKKGYNKRYVGECIANCTV | inactive
116 | VLLIWIIVPTWF | 0.5 ± 0.14
117 | VLLVHGKEWTEMLAHTLRCG | inactive
118 | VLRGHSMHRSMGLWLA | inactive
